# Measured values reported in patent US20180142032A1 (Sanofi, published 2018).
# Residue numbers refer to the chain shown, from its start.
# T1: hLAMP1_ΔGYQTI (human, UniProt P11279 29-412)
# T1 construct: also called pXL5626
# T1 sequence: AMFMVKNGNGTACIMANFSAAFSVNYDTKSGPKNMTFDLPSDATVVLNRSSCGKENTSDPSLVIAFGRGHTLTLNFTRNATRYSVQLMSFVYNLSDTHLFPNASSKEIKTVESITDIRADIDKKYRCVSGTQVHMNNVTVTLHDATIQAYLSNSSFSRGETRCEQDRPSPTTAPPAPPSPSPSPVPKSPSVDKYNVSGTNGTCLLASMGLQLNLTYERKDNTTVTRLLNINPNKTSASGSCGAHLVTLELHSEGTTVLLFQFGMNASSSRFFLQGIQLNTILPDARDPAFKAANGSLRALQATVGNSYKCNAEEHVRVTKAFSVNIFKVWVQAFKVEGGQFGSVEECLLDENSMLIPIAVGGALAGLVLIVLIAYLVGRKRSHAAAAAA
# T2: mLAMP1_ΔGYQTI (mouse, UniProt P11438 25-369)
# T2 construct: on cells; also called pXL6009; murine LAMP1; not shown: murine transmembrane domain and cytoplasmic tail with GYQTI replaced by 5 Ala
# T2 sequence: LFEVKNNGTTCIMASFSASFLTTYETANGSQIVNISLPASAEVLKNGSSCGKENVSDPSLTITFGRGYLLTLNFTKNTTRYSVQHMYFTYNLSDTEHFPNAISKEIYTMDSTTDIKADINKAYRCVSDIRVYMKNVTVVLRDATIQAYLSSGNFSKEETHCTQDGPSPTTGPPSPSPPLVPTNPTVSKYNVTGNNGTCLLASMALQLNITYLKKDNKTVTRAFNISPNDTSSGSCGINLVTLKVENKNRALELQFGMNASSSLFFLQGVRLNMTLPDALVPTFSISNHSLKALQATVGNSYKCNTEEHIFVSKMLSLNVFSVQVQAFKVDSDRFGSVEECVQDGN
# T3: mLAMP1_hseq6-11_ΔGYQTI (mouse; human, UniProt P11438 25-369)
# T3 construct: on cells; also called pXL6041; not shown: murine transmembrane domain and cytoplasmic tail with GYQTI replaced by 5 Ala
# T3 chain: T2 sequence with Y68H, L69T, K76R, T78A, S151N, G152S, N153S, K156R, E157G
# T4: mLAMP1_hseq6_ΔGYQTI (mouse; human, UniProt P11438 25-369)
# T4 construct: on cells; numbering read as for pXL6041; also called pXL6047; not shown: murine transmembrane domain and cytoplasmic tail with GYQTI replaced by 5 Ala
# T4 chain: T2 sequence with Y68H, L69T, K76R, T78A
# T5: mLAMP1_hseq11_ΔGYQTI (mouse; human, UniProt P11438 25-369)
# T5 construct: on cells; numbering read as for pXL6041; also called pXL6048; not shown: murine transmembrane domain and cytoplasmic tail with GYQTI replaced by 5 Ala
# T5 chain: T2 sequence with S151N, G152S, N153S, K156R, E157G
# B1: MAb1 (antibody, mouse IgG2a, kappa)
# heavy: QVQLQQSGAELVKPGASVKMSCKASGYIFTNYNIHWVKKSPGQGLEWIGAIYPGNGDAPYSQKFKDKATLTADKSSSTTYMQLSRLTSEDSAVYYCVRANWDVAFAYWGQGTLVSVSAAKTTAPSVYPLAPVCGDTTGSSVTLGCLVKGYFPEPVTLTWNSGSLSSGVHTFPAVLQSDLYTLSSSVTVTSSTWPSQSITCNVAHPASSTKVDKKIEPRGPTIKPCPPCKCPAPNLLGGPSVFIFPPKIKDVLMISLSPIVTCVVVDVSEDDPDVQISWFVNNVEVHTAQTQTHREDYNSTLRVVSALPIQHQDWMSGKEFKCKVNNKDLPAPIERTISKPKGSVRAPQVYVLPPPEEEMTKKQVTLTCMVTDFMPEDIYVEWTNNGKTELNYKNTEPVLDSDGSYFMYSKLRVEKKNWVERNSYSCSVVHEGLHNHHTTKSFSRTPGK
# light: DIQMTQSPPSLSASLGGKVTITCKASQDIDRYMAWYQDKPGKGPRLLIHDTSTLQPGIPSRFSGSGSGRDYSFSISNLEPEDIATYYCLQYDNLWTFGGGTKLEIKRADAAPTVSIFPPSSEQLTSGGASVVCFLNNFYPKDINVKWKIDGSERQNGVLNSWTDQDSKDSTYSMSSTLTLTKDEYERHNSYTCEATHKTSTSPIVKSFNRNEC
# notes: murine monoclonal IgG, kappa, from hybridoma; also called murine MAb1
# Columns and labels:
# Assay in all cases: flow cytometry, transfected 293-F cells, experiment 2
# hLAMP1_ΔGYQTI = molecular target: T1, hLAMP1_ΔGYQTI
# mLAMP1_ΔGYQTI = molecular target: T2, mLAMP1_ΔGYQTI
# mLAMP1_hseq6-11_ΔGYQTI = molecular target: T3, mLAMP1_hseq6-11_ΔGYQTI
# mLAMP1_hseq6_ΔGYQTI = molecular target: T4, mLAMP1_hseq6_ΔGYQTI
# mLAMP1_hseq11_ΔGYQTI = molecular target: T5, mLAMP1_hseq11_ΔGYQTI
binder,measurement,setting,value
B1,mean fluorescence,hLAMP1_ΔGYQTI,551
same,mean fluorescence,mLAMP1_ΔGYQTI,2
same,mean fluorescence,mLAMP1_hseq6-11_ΔGYQTI,211
same,mean fluorescence,mLAMP1_hseq6_ΔGYQTI,3
same,mean fluorescence,mLAMP1_hseq11_ΔGYQTI,2
